Data: the NTF2 design screens of Basanta et al. (2020)

Test: protease stability score; higher = more stable; yeast display proteolysis, trypsin and chymotrypsin;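 note: relative to predicted unfolded state with 0 unfolded-like and 1 meaning tenfold more protease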
With “SHLSEIAEEIMRELAHAQITGDEHTISRLLDPDTRVEFNGQELHGRDSWVKFLRELGVDHIEIRLEIKRMRIFENRVEIDGVDHIIIRYNGREERREIPSHWDLMKIDGRWSIHSVRAE” the protease stability score was 1.4. Sequence “REEEENMRHFYKLMEHSLHTGDEDTLRRLFDPDARILIDGREHHGMEFILQLLHHIRLRVHDTKIEDIEHQGEWLHMHTRIDIYYNVDGQEVRVDTNVRLHAHKVDGRWFVRSYERG” has a protease stability score of 0.748. For “RDIEEINKRALESWKHALETGDEDTMEELLDPHVRVEDEHEMHHGRSAFHLWIKRVDHFRSLHIRETRIVGDKVDNNVEVDGTINGQDRLIEIRLVLVKFNGKWKFRSIHFK”, the protease stability score was 1.38. For “SEEERHWKEFIRMMFEALKTGDETELEKNIDPNVRVHINGQELHGRETASRFMQKHEEDMGFKHFHIDHIHFQGDKIHVHGILWVNGRDIEIHIHLVIVNGRVSLVSRDIREH”, the protease stability score was 0.247. “SDLEKLAEHTAKEIIHYWLTGDWKSLTELADPHVKLDIDINGRREHHHGWERVIEFFDRFRKRIDHHHIHIDSIDIQGDKVHIDGKLHVHQGDKDLTIKMTIIVIVVDGRIKSLRVIIL” showed a protease stability score of 2.13. “DELTESVREFIEHFIRALETGDWHILHRLLDPHVKLNVNGVEFHGREIIVEFLREIRIHSFIVHHVRIQGDWIDIDGETDGVINGRRIRTRTRIHLHKIDGRWQIKSESVI” gave a protease stability score of 2.09. Sequence “SEEEHRSELAVELVHYTLMTGDFHLIERLVDPNVKLRILIGDKEYDLHGWKEVYRFMVTFGFDHMELKTFDLQGDKLNIDLRLHVDGRNVETSIVALKVNGKWINESEHYRIK” has a protease stability score of 0.464. “DDLEQESHKVFEQYVRDWRTGDEHNVERLADPHVRVLYNGRHSHGWKEFLEHFSRDAQQADHTEFRIDDTDHQGDKMVLNETVILRYGDKEIQIEVELIYRKIDGRWYITEVRFR” gave a protease stability score of 0.204. “SEQEEYLKEYAKHFYEFLLTGDEDWLKRLFDPEARLTVEVGDKTEHLHGREEVSKFWKHLLTEMRIEMTLKDLDSQGEFIVSVTELNINIDGKTIHTRMEIILVVVNGRLREVELRIK” showed a protease stability score of 2.3. “SEEEKELRFVYDLLWHLLKTGDEEITRELADPRVRIDIDGKEWHGRDELARLFDRLHRELGYTVHRTRHHRHDFINGQWHEDGETKGVIGDKEFETHVKIIIIVINGRLKEVIFHYH” showed a protease stability score of 1.16. Work on “SEDHEFSEHALREFIHVLMTGDERSLLKLMDPHTQLIFNGKEIHGMEEIIRIWSEHVKRFGFNHIDHVHIHHVEIQGDKIRIDGTTRGLVNGREHTHRTHLIAIKYNGKWIIHNIKID” yielded a protease stability score of 1.9. Work on “DEEHEDMDKYSKLLVEMLKTGDEHIFKILADPHVRIDINGREYHGWEDWVEVVRELRIHRLHFTHMEIQGDKLHLHLKSKFSFDGRVHEIEIRIHAKKVNGRWVIKEIRII” yielded a protease stability score of 2.29. In the case of “SEDDEHLREFIEIRLHAIETGDWRRMEHLFDPNVRFEFNGVELHGMETVARRLSRIDHEWSEIRINRHRLFNGVLHLDTRLDLRVHVDGKEIRVEHTTRIVILKFNGRWLITEMTIE”, the protease stability score is reported as 0.748. In the case of “SEDEQLAREAIERLLQDFSTGNFERLMEMVDPNVRWEVGDFVSHGRENWSEHFRTYLEKMGFKHVNVRLKHIEVIGNKVIVHSEIIINVDGQELRMQSSSHVVKINGRWVLRSESHL”, the protease stability score is reported as 2.06. With “DEEHREMRDVLDELLEAFHTGDEHSLNRYADPHARHHVNGKEYHGRELMVKIWMDLGIDHVHLEEIHLQGEKLHMDTRVTVNGRTIKVTIIILKINGRWKLTHVEIK” the protease stability score was 0.958. For “REDEEITHKLLELLLTVIRTGDEQEMLNLLDPNTRHDVNGKHLHGRETAHRLFHEWSRHMRIHDLEIHDEKKIGNKVHIDGRLDGHIDGKREKIEVEFVIVKIDGRWVINSMTIK”, the protease stability score was 0.931. In the case of “DELTEVADYLLEHFIRNLITGNEERVRHLADPHVRVIEVYGDKVEMRHGRDSMLKWMHDWRHHIRLKHYQIEHIEVQGEKSVVHGRLRGNIDGRDIDTRTHIEVVHIDGRFTSMRYEVR”, the protease stability score is reported as 0.555. In the case of “DHRESLRDDMEELLLEVIHTGDWHNYLKLLDPNARLVVGDKEYMGRERVLHWFKEKLDKIPGAKIELEDKREIGNKVELDFDMHVGDKSLRLHIDLRKVNGRWLIEHIEIR”, the protease stability score is reported as 1.47. Work on “DEDEESSESFYRLWVELFETGNFEILERLFDPHVRIKIGDKHIHGMEEHIRESFHIIERFKGVQIRVDEVRLFDGRMDVHGELIINGQSVRMRIIVRKVNGRWHLTEMILD” yielded a protease stability score of 1.48. “DELEDDSRRAMETLIEIEKTGDWDLMYQLADPHVKLDINGRIIHGRDEFERRIHEHLTELGIKHHHVKHFQIRIVDGRMEVRLDGILRFNGKDLDVEIVLIVLKVNGRWLLEHSSVKYK” gave a protease stability score of 1.38. Work on “SELEELWKRLLEEFVRLLHTGNEERILDLMDPHARVHTTFENHEFHDHGREAFHIMWEEFGINHLEFHRVRLFNGQVDITGSVNVNGREMETRIHLYIINGRVHQTIFRFR” yielded a protease stability score of 0.996. “DEEEEEAHTITEILVHDWRTGNEEHLVKLIDPNARINYNGVNLHGMKAVSIILHHIRYKDVSLHEVRVFDGQVEIILKIHVNINGQDETHHTHIVLSKVNGRWLIDTIKWE” gave a protease stability score of 1.28. In the case of “DEDTKASELAIEILIKILLTGDEDSLNHLFDPNVRLEVGDKQMHGMESMVKFQRHWRVNHTIVKRMEIINIGDKMHIHLVGHINGDFNGKTSEHESHVHILNEKVNGRWLIRSMEIEIR”, the protease stability score is reported as 1.62. Work on “SEFEEALKEHVKNIIRSVRTGDENELRRQLDPDAKLRINGQDYVGMEYVFHYLFEWRIHDTELKHIHVQGDKLTFNGETTGTYDGQKIHVRIRIIIWKVDGRWLSEHIDVI” yielded a protease stability score of 1.66. Sequence “SEDDEWLHNFIERLLHTILTGDEHIFSELADPNVRLDIGDKELHGWHLIVRHYIDEFRQFKGVRVHIRIRRFTQIGDKVHYDGELIFVIGDKTIIRELHLVVVKIDGRWKLEHFEIR” has a protease stability score of 2.74. “DEHEELMRTLAEIVLRIFLTGDWDSFSKLADPNYRIDWNGRHTHGMHLAERVLREIHRQIRIDNVILQDMRIQGNKVHNHGTIDGNINGVHDKVQTHVHLILVDGRLKEVEFRHH” gave a protease stability score of -0.231. “GEHEDYILHIVDLFIHNILTGDWDAILKLMDPDVRFEIEINGRTIEIHGWEQIKRIMDEIKERADHLHIEIRDKFSVNGVAFFEGTIEIRVGDKRHREDVEIILFVVDGRIKIIRKRDV” gave a protease stability score of 1.99. Work on “TEEEHIIDDFDKRLLHAFVTGNEDLLAKLADPNVRLSVKIGDKTIERHGMESFRNWLRRFHEEIRIEDHKSDEVRFYNGVLEHHGTVLGHVNGVRTKVHVLEIYFIINGRMRNIWIEVR” yielded a protease stability score of 1.54. For “DEDKENAEEAIRRLMEMILTGDEDQIRHMIDPHVRVIINGRDHHGWEELLRFWKEMRIHDVKVHDIKIINGRVNSDTKIVTEIGDFRIELEAHFIFHKFDGRWRVDSVDLR”, the protease stability score was 1.18. For “DEITTLFRKILELMEHALKTGDWEIHKRLMDPHTKSNVNGVVAIGREELDKLWKELDKQVDHVEDSHFTEFRIQGDYIRIHVQIRIRVGDKFHDLKVDYHLVIINGVMKSSSVTFH”, the protease stability score was 0.963. In the case of “DEREERSRHQMEWLWHLMITGDERLLEELADPHAKIEVGDKDFHGRHTLIEIIREHLQRVKNVRLEFREIEIQGDKIIIRGKLHIGDKEKDIIVIIVVVNGRLKSFKLEVH”, the protease stability score is reported as 1.19. “DEEEEKLKKWADDTIQLLRTGDEEDLYKMLDPHARTEVNGRELHGREEMFKVLKTIWDKVKGIKFLHRDHRLYNGRVEIHGELVIGDKIHKVHIIVLIINGKIKEVEIHIH” showed a protease stability score of 1.39. With “SEREEEARKMTRRIIHTFFTGNEDFWDHLVDPNARVVINGVTVHGWERFQELLVDFLKEMRTRHIELRHLDAYGDKAHTDGRVDGDVNGQRVLRIEHLRVDVINGKVHSVEIEFR” the protease stability score was 0.916. In the case of “HEDEQLAREFVEHLTENLRTGNEERIAELADPHVRVDIGDKHLHGWEWLRRRVRELRFHDLIIHHVEVIDGRIIFRGRMDGRVNGRHTQTEVRVELDKIDGRWTIRHIEIR”, the protease stability score is reported as 2.01. In the case of “DELDEILVRIAEMVVEIWETGDWEWLEHLLDPHVRLQIGDKEVHGREAIREMIHELLNKLPNIRSHIRLREVRYYNGKAHFNTELRLHINGRDLRSRVRYEILVVDGRVRSMHVEIR”, the protease stability score is reported as 1.09. Sequence “DEDTEKLKKSLEVIWRLLHTGDENSLEHLMDPNARLDINGVTQVGRTASKIIIDRFDHIRHIHINDVRFIDGRAHVHGKTDGIQGDKRYEVSMEIILLKINGRWIIHQFYTE” has a protease stability score of 1.38.
